How the values were obtained:
[1] = molecular target: His-tagged human FcγRI (human) (UniProt P12314); test: SPR (Biacore T200), 25 C, His-tagged FcγRI captured on anti-penta-His chip, antibody injected, 1:1 fit
[2] = molecular target: His-tagged cynomolgus FcγRIIIA (cynomolgus) (UniProt Q8SPW2); test: SPR steady-state, 25 C, His-tagged FcγR captured, antibody injected
[3] = molecular target: His-tagged cynomolgus FcγRIIB (cynomolgus); test: as above
[4] = molecular target: His-tagged human FcγRIIIB (human) (UniProt O75015); test: as above
His-tagged human FcγRIIIB (human), sequence (O75015 17-200 limits assumed): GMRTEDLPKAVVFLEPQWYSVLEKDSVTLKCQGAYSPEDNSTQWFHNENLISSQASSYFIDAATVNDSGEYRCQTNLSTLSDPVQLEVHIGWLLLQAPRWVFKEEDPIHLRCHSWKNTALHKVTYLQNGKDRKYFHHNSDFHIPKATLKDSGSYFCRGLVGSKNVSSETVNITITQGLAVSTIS

[5] = molecular target: His-tagged human FcγRIIIA (V176) (human) (UniProt P08637); test: as above
His-tagged human FcγRIIIA (V176) (human), sequence (P08637 17-208 F176V limits assumed): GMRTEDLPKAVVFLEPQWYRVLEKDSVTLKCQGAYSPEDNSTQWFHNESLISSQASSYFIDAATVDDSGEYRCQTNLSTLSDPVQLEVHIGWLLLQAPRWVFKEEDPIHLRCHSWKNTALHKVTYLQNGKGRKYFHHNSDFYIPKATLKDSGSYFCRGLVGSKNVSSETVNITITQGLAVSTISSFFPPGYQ

[6] = molecular target: His-tagged human FcγRIIA (H131) (human) (UniProt P12318); test: as above
His-tagged human FcγRIIA (H131) (human), sequence (P12318 36-218 limits assumed): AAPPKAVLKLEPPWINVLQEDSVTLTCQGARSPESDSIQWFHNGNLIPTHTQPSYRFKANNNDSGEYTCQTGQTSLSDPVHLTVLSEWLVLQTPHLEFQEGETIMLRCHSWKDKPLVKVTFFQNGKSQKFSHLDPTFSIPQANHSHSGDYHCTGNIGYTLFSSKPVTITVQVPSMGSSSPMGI

[7] = molecular target: His-tagged human FcγRIIIA (F176) (human) (UniProt P08637); test: as above
His-tagged human FcγRIIIA (F176) (human), sequence (P08637 17-208 limits assumed): as the sequence (P08637 17-208 F176V limits assumed) above, with V160F counted along it

[8] = molecular target: His-tagged cynomolgus FcγRIIA (cynomolgus); test: as above
[9] = molecular target: human CD3 (on Jurkat cells, CD3+, CD20- human T-cell line; on human T cells) (human) (UniProt P07766); test: FACS, serially diluted antibody on Jurkat cells (CD3+, CD20-)
[10] = molecular target: Fc receptors (FcR) on U937 cells; test: cell-based or functional assay
[11] = molecular target: cynomolgus CD3 (on cynomolgus T cells from PBMCs, "mkT cells") (cynomolgus) (UniProt Q95LI5); test: FACS, serially diluted antibody on cynomolgus T cells (CD2+CD4+ gate of PBMCs)
cynomolgus CD3 (on cynomolgus T cells from PBMCs, "mkT cells") (cynomolgus), sequence (Q95LI5 22-198, chain 1 of 3): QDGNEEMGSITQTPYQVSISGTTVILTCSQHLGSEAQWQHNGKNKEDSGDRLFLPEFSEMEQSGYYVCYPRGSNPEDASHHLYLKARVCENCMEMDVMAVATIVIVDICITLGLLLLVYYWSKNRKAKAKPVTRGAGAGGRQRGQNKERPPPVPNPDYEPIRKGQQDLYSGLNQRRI
cynomolgus CD3 (on cynomolgus T cells from PBMCs, "mkT cells") (cynomolgus), sequence (Q95LI8 22-171, chain 2 of 3, further chain): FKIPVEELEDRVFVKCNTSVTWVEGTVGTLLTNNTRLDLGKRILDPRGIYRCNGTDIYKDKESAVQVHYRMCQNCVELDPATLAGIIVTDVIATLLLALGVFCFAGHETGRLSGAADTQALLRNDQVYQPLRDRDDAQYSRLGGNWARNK
cynomolgus CD3 (on cynomolgus T cells from PBMCs, "mkT cells") (cynomolgus), sequence (Q95LI7 23-181, chain 3 of 3, further chain): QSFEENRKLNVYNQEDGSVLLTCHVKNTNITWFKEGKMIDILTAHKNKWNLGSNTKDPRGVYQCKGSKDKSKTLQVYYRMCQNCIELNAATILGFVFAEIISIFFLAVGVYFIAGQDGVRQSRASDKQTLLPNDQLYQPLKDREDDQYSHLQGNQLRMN

[12] = molecular target: His-tagged human FcγRIIA (R131) (human) (UniProt P12318); test: SPR steady-state, 25 C, His-tagged FcγR captured, antibody injected
His-tagged human FcγRIIA (R131) (human), sequence (P12318 36-218 H167R limits assumed): as the sequence (P12318 36-218 limits assumed) above, with H132R counted along it

[13] = molecular target: His-tagged human FcγRIIB (human) (UniProt P31994); test: as above
His-tagged human FcγRIIB (human), sequence (P31994 46-217 limits assumed): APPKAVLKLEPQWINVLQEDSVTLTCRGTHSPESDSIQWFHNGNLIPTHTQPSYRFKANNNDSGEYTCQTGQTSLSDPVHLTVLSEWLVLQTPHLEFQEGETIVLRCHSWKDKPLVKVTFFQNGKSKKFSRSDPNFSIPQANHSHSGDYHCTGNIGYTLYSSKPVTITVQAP

His-tagged human FcγRI (human), sequence (P12314 16-288 limits assumed): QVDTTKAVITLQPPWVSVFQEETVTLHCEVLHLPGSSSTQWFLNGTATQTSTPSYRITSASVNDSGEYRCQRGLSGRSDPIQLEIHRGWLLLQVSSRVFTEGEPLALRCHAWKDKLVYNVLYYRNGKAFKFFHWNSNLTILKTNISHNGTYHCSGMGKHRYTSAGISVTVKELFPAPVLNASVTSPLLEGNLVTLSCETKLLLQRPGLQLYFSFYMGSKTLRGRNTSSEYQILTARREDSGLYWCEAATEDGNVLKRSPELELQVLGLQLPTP
His-tagged cynomolgus FcγRIIIA (cynomolgus), sequence (Q8SPW2 17-208 limits assumed): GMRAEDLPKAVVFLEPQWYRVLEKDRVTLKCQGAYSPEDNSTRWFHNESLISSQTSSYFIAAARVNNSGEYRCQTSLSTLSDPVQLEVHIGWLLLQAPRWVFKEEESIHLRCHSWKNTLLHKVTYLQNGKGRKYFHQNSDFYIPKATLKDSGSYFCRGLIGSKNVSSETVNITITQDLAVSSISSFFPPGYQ

wt-IgG1 Isotype Control (from UniProt P01857 1-328) (antibody)
Kd [1]: 0.0043 µM
T1/2 [1]: 15 min
Kd [2]: 0.6 µM
Kd [3]: 4.2 µM
Kd [4]: 2.3 µM
Kd [5]: 1.5 µM
Kd [6]: 1.1 µM
Kd [7]: 1.3 µM
Kd [8]: 4.2 µM

Control Antibody 1: Monoclonal antibody "OKT-3" against human T-cell surface antigens
EC50 [9]: 0.000196 µM
U937 Cytotoxicity Human T-cells [M] (EC50, calcein release) [10]: 3.04e-12 M

Control Antibody 2: Antibody "SP34" reactive against the epsilon chain of the T3 complex on human T lymphocyte cells
EC50 [11]: 0.0703 nM

wt-IgG4 CPPC Isotype Control (antibody)
Kd [1]: 0.0139 µM
T1/2 [1]: 5 min
koff [1]: 0.00236 s⁻¹
kon [1]: 171000 M⁻¹ s⁻¹
Kd [2]: 5.8 µM
Kd [3]: 9.6 µM
Kd [12]: 10 µM
Kd [5]: 10 µM
Kd [6]: 12 µM
Kd [13]: 9.8 µM
Kd [7]: 26 µM
Kd [8]: 19.3 µM

Reference: patent US20180194841A1
